Measurements published in the domain aggregation screens of Martell et al. (2025).

test: soluble fraction after stress (log2 fold change); higher = more stays soluble; pooled small domains, quantitative proteomics; settings: stress: pH 4
Procedure, shortened: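 Values are on a log2 scale, where higher means more of the domain stayed soluble after pH 4 stress. They are fold changes in the soluble amount of each domain from pooled custom libraries, measured by high-throughput quantitative proteomics. The fold change is taken to reflect aggregation propensity.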

| Sequence | soluble fraction (log2) |
| --- | --- |
| HMNREEFLSQLERLLYDIPAQEREEALEYYNGYFDDAGKEKEAEVIQELGSPGKVAAIIKADLSG | -0.605 |
| HMNRETAISIYRILHILEEPYKEVFTLRTLGDLSYREIADIFGKQENWARVTYHRAKLKIREALVS | -0.71 |
| HMNRIFQERVVPAELDTLRADKVAASLFSDFSRNELAHWIKMGDLSINGGVKKAKDKLFEGDVLILDVEIV | -0.679 |
| HMNRKILVLLAGKEQITDNVSVMQSIHRYAFINTATINKAQHEILIEKEEIRQEALTLIHEFLK | 0.0276 |
| HMNRKLKAKATREKIYKSAEKLFSQNDYNKVSVDAIVEAAGVAKGSFYVHFASKDALIAMLINDH | -0.012 |
| HMNRMKLLREQHNLSQTDLAKILNISRQSYNFYENEKRDPDTTMLIRIADFFNVSLDYLLGRTNN | -0.0385 |
| HMNRPYVELFSGLGQEEAQQIVQKLQEDEVDYKFSGDSTILVKEDVVDQTKATLVQEGYPKS | -0.392 |
| HMNSEEINDVRKAVDELPTHLREILLLNYFQQMSYVQISDSLEIPLGTVKSRLHAAVAAFRNAWQSSQEE | -0.154 |
| HMNSEELFLRRIAQELIDQHGKDLHRIIVVLPSNRSKVFLKKFLFEILGSAFLTPQLMLLPQFVKSIV | -0.34 |
| HMNSFGWESFVGEKGVTDTDLRPSGWIVIKDKRLFALTEGTFIEKGVSVEILSVEGNRIVVREIS | -0.711 |
| HMNSHKIIDRLNQMITEKDLSEEMPAITEAFKNNERSAEDLKKYVAENLSKKLNAEEREKFVSLILQYRN | -0.338 |
| HMNSILFAITKEGGVVYGGKPVGVNGVRPLVRRLLQSEEMPVILQVDEKADAGLVIRVIDESKLGGASKV | -0.196 |
| HMNSIQEQIEKYVYSLAPVTIERYESLKNGDIEDIEFEKLRKSISSKIINEKIDNKKQVAILSHLKKMYSD | -0.472 |
| HMNSKIIVESIIKSKNGIAKVADLVEGGVSRQSIKKMYADGYIKRISRGYYTLTSEPVSSDEQVISS | 0.39 |
| HMNSKMTYSELITSMENKEVESVKISSSGDVASVKLKNSKTEKEVKIPSLDSFMTYTEQYLKTGEITLEE | -0.0537 |
| HMNSKMTYSELVTNITNKEVESIKISSTGSTASVKLKNSKSEKEVNIPSLDSFMSYTEEYLKTGDFTLDEE | -0.824 |
| HMNSLKNKNNLIALVGASNDKNKYGNKILLDLVSKGHNVVPINPKEDTVAGLKSYNNVSELSEKPSI | -0.202 |
| HMNSLPFSNFMNEVEAGRVVEVKIQGNNISGVLANGKTFSTYSPNYPELVEKLSSNGVSIVATPQ | -0.0501 |
| HMNSRTLAYSDFIRKVDKGEVSAVVIDGEQVQVQTKDGQTFVTIQPQSEQMNDKLVEQLIAKDISVKAERQ | 0.0565 |
| HMNSSLFLARQVHALRKKAGLTLQQLSRKSDVSVSTLSKIEKGQLSPTYEKIVSLARGLDVPIAALFHE | ≥ 0.43 |
| HMNSSTVDLAKEFLIDLLSSVEKMPASEVQEEAKNAGYSVASIRRAKDNLNIKPFKDGSAWYWKLPSIFK | -0.447 |
| HMNSSTYIVTFKVDGEEDIVETYQWGDRIIVPEVEAKDDYVFIGWDAQIPEFMPERNLEFTAI | -1.67 |
| HMNSTNYQVIITANGGLNIRAGASTAYARIGGYAKGTVVTILAESNGFGKTDKGWISLNYTSKDLD | 0.148 |

| Sequence | soluble fraction (log2) |
| --- | --- |
| HMNTAALSLQRRNEIKKWLLEEKTLTVAALSNRFNVTYETIRRDLEILEKEGFLKKVYGGAALNERV | 0.244 |
| HMNTAIDGLIEKVGMFAMEKKAISVDQVKENFSINGEQAESVIKQLETIGVLGKKNEDGTHTVM | -0.0986 |
| HMNTDALIGKTGYVTEIVGERHGRIQFSGGEWSARTEGVSIPVGAEVRVDRIDGATAVVSAV | 0.22 |
| HMNTDVEKQKVFTALFDDYFRRNSMTSLEKQLFLTALKTNFQNAQKTVAKDHPYYATYSLIISAIENYR | -0.936 |
| HMNTEEKILEKEFLMLYSELGLQPKNIYELMENTGLKYEKLVEMLLQLQLKGLVEQPSYNYYSRL | -2.46 |
| HMNTEEVGSYLKKLRLEHSFTQKELAGKLYITHQAVSNWEKGKALPDIGILSQLGDIYGISIDNLLLK | -0.551 |
| HMNTEKRVFAGVENTRLDHFLVEQFPEFSRTFIQQMIKSANVIVNGNIEKASYKLREGDTIMTRPM | -0.0899 |
| HMNTELFTKNLFNKLEVLLGEKNWKSKTAQLLNISSDAFYKKIRNESQLNLHELLLIKDTFKISIDALLDE | -0.929 |
| HMNTETAVTKAIDQIQVMMDLRNRSVSFTRDQETGTDIIKVIDDNTGDTIRQMPSEELLTFMKNLTQ | -0.332 |
| HMNTFKNIFIQEGDLFNLKKNDNQIIFAKEGILINENKKIFRLLNGKIISTNNNRLIGFEFDKIDYNLSN | -0.0628 |
| HMNTGIPHQEVIKKLYSFAEGGDWKGLKEELNRIKEYTLFYNSVKELADSFEINRLIEKLKTYIF | -0.0132 |
| HMNTGLSEREHEIAQLVLQGRTYAEIGAELFISPRTAEHHIGQIRRRLAATSRSDLLAKLRVAMNTTEGAG | -0.567 |
| HMNTISYTELIKQIDEGNVEKVEMTVGSTSVKVKLQGQEEEKKAIVPNTQAFVELIQEKTLEGNQIDLKQN | 0.0768 |
| HMNTLSPVRILAILDGRSSMAEWQLAEELGVSIDNLSEILNKMSTDGQIRLVPSEDGRMVVP | -0.0347 |
| HMNTPALRQRTQDVPALLIHFAKYFATKGQTPISFAPDFLEALKDYPWPGNVRELRNLVESMVV | -0.0956 |
| HMNTPHLTPREREVLKGIVDGLINKEIAARMGVSVATVITHRNNLTEKLGTRSVSALTIFAVMHGIVR | -0.323 |
| HMNTPNYDVLYRGLADADAGQIMEALQKSNIPFKVDSHSGVLLVPADQVHEARLKLASQGLPRG | 0.00323 |
| HMNTPTLLLYGGKDHSVPEAGIRHLRAHLSANDRGEYRFYPNAPHLLLQSRQWQQVSQDISQWLAMT | 0.0454 |
| HMNTRWDDAAQTWLRKVIEQQPVLVQISAAKRLRDQAEQRAREAGEEVVTEQHVKRAGLELGFGEP | -0.239 |
| HMNTSITVPSLKGLSQEAATLKMERLGLHVEVSDTGFVRSLAFGTVLQQSIAPGEKVKPGRLVYITINSD | 0.0638 |
| HMNTVAGAISDLSFKVRGSEDIEKLNRLKALSIQAKLDVQGQEEAERLISELEAKYGSLGMTVDKVSGKIA | 0.192 |
| HMNTYEIIGGDNRARGPVTGEELSQWIREGRASGHTMARVSDGEHWQPLGSFPEFVGPLQGLPW | -0.163 |
| HMNTYVLPDALKSQLSVEDTGMLTKQLQALPETLAEGVLDSLSQMLSKNTLQNPVGWMLAVMKRAREGNFN | -0.282 |

| Sequence | soluble fraction (log2) |
| --- | --- |
| HMNVAVSEADAKAAALERVSGATEADIRMELELDDGYYVYEGDIIYQQKEYEFEIDAQTGKFLKWSEER | 0.0965 |
| HMNVDLLEARIPIQSHGMRLDQVVAELFPDYSRNRLAAWIKEGRLTVDGKTMKPRDRALASAHVVLEVV | -0.197 |
| HMNVGKYILTLAAKEGYSQSDVARRTGISRQMLSYIIAGERKLTLPQALKIESLLSLKTGTLILMQDED | 0.219 |
| HMNVNEIREMYPEGTQIVLTEMRGENQMPYGLKGTVKFVDDAGQIHMKWENGSSLALNINEDTFEKVE | -0.471 |
| HMNVPATAEAYEALLADAESVGKSLWGHEAKRFAAEQALLSAGLREVIQVDPDKARELALRLRGLLDEYRG | -1.24 |
| HMNVQGFVFDLAEPLDKVPSIEGFPLKLEDPLTLVAAVNKDRSINALFAELSKLNIKIKSMRNE | -0.458 |
| HMNVVSIEHIRTHLQNHLSLIGRSIEESFNEAKVIAFVASLFLTHRGYASVSQDMGTNGEIYLQDLW | -0.0149 |
| HMNVWGLSERELEATRLLIEGFSSKEASARMGISPSTVRSLWGRARAKMGVDSIEDARELVA | -0.273 |
| HMNYAVTAARRESILNAALEIFGKSGYNGSSVKQVALAVGMTEAGVLHHFGTKSNLLIEVLRV | ≥ 0.43 |
| HMNYLDVNIPVTSAVWMGKQLPEMGTLIYLTPDKDVEGMLFIKQATKDKPDGEYIEAKVLGYKEGRVLFDF | -1.48 |
| HMPAEEVPLYKAVVVTTPPNRLRVRFSPAGDFKRWLQSGEEVDVYQELGDWRRIEPNGWSSAEWLQRVG | 0.00708 |
| HMPAGWIPARIRLADYPQLRSLAWHVQGIDTLTPTEALDIYERNARHLDAQAMSAQEQDLLASLRLALS | -1.06 |
| HMPALPGNELLRNLMLEHGLKQVDLAEIGSQGVVSEILSGKRRINRRHADLLARRFSLPAELFSR | -0.0865 |
| HMPANLTPDYFKAEQWYRSASTNEEKMLALEQMLAVMPKHKGTEHLQADLKRKLSQLKDASAQ | ≥ 0.43 |
| HMPAPAPDIPYHSRVSVRRADGFYEGTWTNTAPILDYTGRWMVNVSLGGKRVFVPVEEVVVH | -0.384 |
| HMPAPKPSGALSLKDEPLYAASDSKRRSGTVSGTYYRWDGENVNGRMRITNKQENIGKAGQVTGWITAH | -0.00233 |
| HMPASTSIPYSDFISRVESGDVQEAKIGESAITGTYKDGSQFKTVKPPTLDTNLMPTLIQNKVNVVGVEP | 0.0215 |
| HMPAVGGVVKGAVVSVGRNEVRLDIGGLAIGIIRGPELDKHVDLRIGDEVEATVITLDNEFGELELSL | -1.73 |
| HMPAVTEQTKTNLRRAFWQLYEQKPIQKITVKQITDLAGYNRGTFYLYFKDVYDLLDDIENK | -0.584 |
| HMPAVTEQTRANLRTAFWSLYREKPTSKITVREITDRAGYNRATFYLYYRDVYDLFEQIEQEIL | -1.36 |
| HMPDAGQRRYLELVTALAGARSLTIDDLERRAIRFAEWGNGYSGRTARQFIDTLLQDRGVAEEL | -0.935 |
| HMPDAIPLETIIKNVNVLAGFLINSKTFTEDDIVMAYNNIMKIKGDHTDEKTLTNDVYTLLTEMN | -1.22 |
| HMPDIFDRGTAHITDAASGVAITFTRTFRIPPEVTMTHKGGTVVAIARLVGSITTGGFTAVLENT | -0.0848 |
